Assay results taken from the Human Domainome abundance scans (Beltran et al. 2025).

B1: POU domain, class 2, transcription factor 3, residues 186 to 260; numbered along this chain, Q9UKI9 (parent)
chain: SDLEELEKFAKTFKQRRIKLGFTQGDVGLAMGKLYGNDFSQTTISRFEALNLSFKNMCKLKPLLEKWLNDAESSP

Variants of: B1
Assay: abundance fitness (aPCA) (normalised: wild type 0, dead -1); higher = more abundant; growth selection in yeast, the domain comes from the species named
Conditions: Homo sapiens

Abundance fitness, by site and new letter:
Q41: F -0.037 | W -0.095 | V -0.081 | L -0.117 | M -0.055 | H -0.001 | I -0.072 | Y -0.07 | A 0.025 | P -0.03 | S -0.002 | G 0.009 | T -0.04 | K 0.051 | D -0.066 | R -0.001 | C -0.062 | E 0.026
G36: C -0.18 | S 0.1
F47: A -0.712 | M -0.279 | W -0.27 | D -0.985 | E -0.942 | I -0.433 | P -1.09 | R -1.08 | Y -0.222 | Q -1.22 | V -0.346 | N -0.932 | K -1.15 | L -0.098 | S -0.915 | G -0.925 | T -0.812 | C -0.845
N37: Y -0.157 | V -0.027 | A 0.02 | E 0.003 | G 0.024 | H 0.04 | R 0.027 | F -0.139 | T -0.013 | I -0.039 | W -0.07 | C -0.027 | M -0.025 | D 0.023
D38: N 0.037
R46: W -0.428 | L -0.05 | I -0.745 | Y -0.097 | K 0.052 | N 0.011 | G -0.009 | P -0.986 | T -0.181 | S -0.008 | Q 0.014 | E 0.035 | D 0.009 | H -0.038 | M -0.001 | A 0.015 | V -0.542
M57: K -0.396 | I -0.305 | A -0.024 | S -0.02 | T -0.25 | L -0.021 | Y -0.496 | P -0.8 | C -0.166 | G -0.172 | F -0.222 | R -0.608 | Q -0.318 | D -0.451 | W -0.27 | N -0.167 | H -0.811 | V -0.202 | E -0.814
V27: D -0.727
M31: C -0.583 | R -0.746
T42: I 0.135
N56: H 0.014 | E -0.001 | A 0.018 | C -0.016 | T 0.093 | M 0.045 | P -0.206 | I -0.034 | D 0.008 | G -0.05 | V -0.082 | F -0.058 | Y -0.022 | K -0.024 | W 0.014 | R 0.009 | L -0.008 | Q 0.046 | S -0.035
Y35: S 0.01 | F -0.182 | D -0.016
K55: F -0.031 | T -0.003 | C -0.033 | M -0.052 | G 0.009 | Q 0.046 | Y 0.069 | E 0.016 | S 0.011 | I -0.12 | R -0.015 | L 0.001 | H -0.132 | N -0.152 | V -0.006 | D 0.037 | W -0.093 | P -0.155
G32: R 0.29
S45: G -0.036 | V -0.077 | H -0.097 | W -0.138 | C 0.022 | I -0.125 | P -0.04 | T -0.036 | D -0.048 | F -0.253 | R -0.024 | M -0.037 | K 0.021 | L -0.125 | N 0.004 | A 0.013 | Y -0.099
G28: T 0.087 | C -0.367 | R -0.191 | Q -0.59 | A -0.055
S53: E -0.061 | D -0.04 | W -0.958 | R -0.093 | F -0.66 | P -0.032 | M -0.608 | Q -0.077 | H -0.205 | I -0.556 | K -0.091 | G 0.015 | T 0.002 | N 0.03 | V -0.598 | L -0.768
F22: A 0.146 | L 0.065 | E -0.412 | R -0.274 | S -0.282
L50: S 0.031 | G 0.031 | H 0.142 | M -0.02 | D -0.204 | C -0.078 | E -0.165 | Q -0.055 | W -0.105 | T -0.003 | Y -0.077 | N 0.087 | R 0.009 | K -0.051 | A 0.017
G21: S -0.504 | V -0.683 | Q -0.493 | D -0.373
L29: P -0.47 | E 0.02 | D -0.045 | V -0.007 | W -0.121 | S -0.003 | A 0.024 | I 0.022 | F -0.099 | H -0.062 | M 0.05 | Q 0.007 | G -0.042 | T -0.083 | R 0.019 | C 0.026 | K 0.042 | Y -0.06
Q24: A -0.451 | S -0.071 | W -0.591 | C -0.155
N51: K 0.069 | Q -0.011 | G -0.01 | W -0.282 | C -0.076 | H 0.107 | S 0.043 | V -0.1 | I -0.151 | D -0.008 | T 0.007 | Y -0.188 | M -0.022 | L -0.035 | P -0.844 | E -0.078
G25: C 0.105 | V -0.161 | D -0.436
K33: G 0.141 | W -0.372 | R 0.129
D26: V -0.227 | G -0.125 | R -0.344
F54: G -0.05 | L -0.041 | N -0.037 | W -0.024 | E 0.018 | I -0.006 | T 0.013 | V -0.012 | S -0.059 | Y 0.115 | K 0.014 | C -0.068 | P -0.041 | M 0.057 | R 0.024 | Q -0.025 | A 0.013 | D -0.063 | H 0.033
C58: L -0.02 | A 0.027 | M -0.005 | E -0.039 | D -0.04 | I 0.01 | K -0.058 | G -0.031 | R 0 | P -0.474 | H -0.052 | S 0.026 | N -0.005 | F 0.005
E48: C -0.871 | D -1.11 | M -0.798 | S -0.912 | Q -1.16 | P -0.994 | K -0.705 | I -1.02 | W -1.17 | H -1.19 | T -1.25 | N -0.871 | F -0.708 | V -1.04 | G -1.04 | L -0.836
T23: S 0.026 | A -0.157
L52: E -0.131 | P -0.972 | I -0.183 | W -0.201 | G -0.149 | C -0.107 | R -0.717 | S -0.25 | A -0.148 | N -0.444 | D -0.021 | F -0.231 | K -0.618 | M -0.004
A30: G -0.288
I44: D -1.03 | E -0.794 | V -0.045 | H -1.02 | R -0.86 | M -0.377 | P -0.919 | Y -0.569 | C -0.538 | A -0.784 | N -1.1 | L -0.149 | G -1 | Q -0.985
A49: L -0.197 | T -0.253 | K -0.315 | V 0.011 | H 0.014 | P -0.384 | R -0.036 | M -0.201 | F -0.274 | S 0.089 | Q 0.133
